Measured values taken from patent publication US20180155451A1 (published 2018).
Positions count from the first letter of the chain named. Names may count otherwise.

T1: FcgRIIa R (human, UniProt P12318 34-217)
T1 construct: extracellular domain; also called FcγRIIa R; FcγRIIa type R; not shown: His tag attached to the C terminus
T1 sequence (looked up): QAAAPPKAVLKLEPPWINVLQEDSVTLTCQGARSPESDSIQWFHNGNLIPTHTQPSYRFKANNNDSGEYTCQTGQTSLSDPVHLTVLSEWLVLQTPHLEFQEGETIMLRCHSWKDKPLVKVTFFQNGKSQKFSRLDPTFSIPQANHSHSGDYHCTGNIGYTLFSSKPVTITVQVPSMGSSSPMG

T2: FcgRIIa H (human, UniProt P12318 34-217)
T2 construct: extracellular domain; also called FcγRIIa H; FcγRIIa type H; not shown: His tag attached to the C terminus
T2 sequence (looked up): T1 sequence (looked up) with R134H

T3: FcgRIIb (human, UniProt P31994 43-217)
T3 construct: extracellular domain; Expressed in FreeStyle293 cells and purified; used as analyte in Biacore; also called FcγRIIb; CD32B; not shown: His tag attached to the C terminus
T3 sequence (looked up): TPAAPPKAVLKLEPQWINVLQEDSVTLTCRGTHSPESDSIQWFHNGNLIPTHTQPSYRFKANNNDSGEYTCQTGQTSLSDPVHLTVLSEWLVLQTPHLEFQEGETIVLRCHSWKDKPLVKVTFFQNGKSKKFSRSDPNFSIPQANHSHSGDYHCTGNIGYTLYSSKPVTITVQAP

T4: FcgRIIa H type extracellular domain, C-terminal His tag (human, UniProt P12318 34-217)
T4 construct: extracellular domain; also called FcγRIIa H; 2aH; not shown: His tag attached to the C terminus
T4 sequence (looked up): T1 sequence (looked up) with R134H

T5: FcgRIIa R type extracellular domain, C-terminal His tag (human, UniProt P12318 34-217)
T5 construct: extracellular domain; also called FcγRIIa R; 2aR; not shown: His tag attached to the C terminus
T5 sequence (looked up): T1 sequence (looked up)

T6: FcgRIIb extracellular domain, C-terminal His tag (human, UniProt P31994 43-217)
T6 construct: extracellular domain; also called FcγRIIb; 2b; not shown: His tag attached to the C terminus
T6 sequence (looked up): T3 sequence (looked up)

B1: H240-Kn067/H240-Hl136/L73-k0 (antibody, human IgG1, kappa)
heavy 1: QDQLVQSGAEVKKPGASVKVSCKASGFNIKDTYIQWVRQAPGQGLEWMGRIDPLRKQTKYREKFEGRVTITADTSTNTAYMELSSLRSEDTAVYYCVRSGREFDYWGQGTLVTVSSASTKGPSVFPLAPSSKSTSGGTAALGCLVKDYFPEPVTVSWNSGALTSGVHTFPAVLQSSGLYSLSSVVTVPSSSLGTQTYICNVNHKPSNTKVDKKVEPKSCDKTHTCPPCPAPEYYWGPSVFLFPPKPKDTLMISRTPEVTCVVVDVSDEDPEVKFNWYVDGVEVHNAKTKPREEQYNATYRVVSVLTVLHQDWLNGKEYKCKVSNKDLPAPIEKTISKAKGQPREPQVCTLPPSRDELTKNQVSLWCLVKGFYPSDIAVEWESNGQPENNYKTTPPVLDSDGSFFLYSKLTVDKSRWQQGNVFSCSVMHEALHNHYTQKSLSLSP
heavy 2: B1 heavy 1 with C348Y, D355C, W365S, L367A, Y406V
light: DIQMTQSPSSLSASVGDRVTITCRASQDIHKYIAWYQQKPGQAPRLLIQYTSTLQPGVPSRFSGSGSGTDYTFTISSLQPEDIATYYCLQYEQLRTFGGGTKVEIKRTVAAPSVFIFPPSDEQLKSGTASVVCLLNNFYPREAKVQWKVDNALQSGNSQESVTEQDSKDSTYSLSSTLTLSKADYEKHKVYACEVTHQGLSSPVTKSFNRGEC
notes: Anti-EREG IgG1 called homodimerized: both H chains (knob and hole) carry L234Y/L235Y/G236W/H268D/S298A/A327D; also called H240-Kn067/H240-HI136/L73-k0
B2: H240-Kn133/H240-Hl068/L73-k0 (antibody, human IgG1, kappa)
heavy 1: B1 heavy 1 with Y233L, Y234L, W235G, D267H, D269E, A297S, K325D, D326A, A329K, K333E
heavy 2: QDQLVQSGAEVKKPGASVKVSCKASGFNIKDTYIQWVRQAPGQGLEWMGRIDPLRKQTKYREKFEGRVTITADTSTNTAYMELSSLRSEDTAVYYCVRSGREFDYWGQGTLVTVSSASTKGPSVFPLAPSSKSTSGGTAALGCLVKDYFPEPVTVSWNSGALTSGVHTFPAVLQSSGLYSLSSVVTVPSSSLGTQTYICNVNHKPSNTKVDKKVEPKSCDKTHTCPPCPAPELLGGPSVFLFPPKPKDTLMISRTPEVTCVVVDVSHEEPEVKFNWYVDGVEVHNAKTKPREEQYNSTYRVVSVLTVLHQDWLNGKEYKCKVSNDALPKPIEETISKAKGQPREPQVYTLPPSRCELTKNQVSLSCAVKGFYPSDIAVEWESNGQPENNYKTTPPVLDSDGSFFLVSKLTVDKSRWQQGNVFSCSVMHEALHNHYTQKSLSLSP
light: B1 light
notes: Anti-EREG IgG1 called homodimerized: both H chains carry D270E/K326D/A330K/K334E; also called H240-Kn133/H240-HI068/L73-k0
B3: H240-Kn125/H240-Hl076/L73-k0 (antibody, human IgG1, kappa)
heavy 1: B1 heavy 1 with Y234Q, S238M, D269E, D326A
heavy 2: B2 heavy 2 with K329M
light: B1 light
notes: Heterodimerized anti-EREG IgG1: Kn125 is H240-Kn072 with Y235Q and S239M
B4: H240-Kn113/H240-Hl076/L73-k0 (antibody, human IgG1, kappa)
heavy 1: B1 heavy 1 with Y233E, Y234N, D269E, D326A
heavy 2: B2 heavy 2 with K329M
light: B1 light
notes: Heterodimerized anti-EREG IgG1: Kn113 is H240-Kn072 with Y234E and Y235N
B5: H240-Kn115/H240-Hl076/L73-k0 (antibody, human IgG1, kappa)
heavy 1: B1 heavy 1 with S238M, D269E, D326A
heavy 2: B2 heavy 2 with K329M
light: B1 light
notes: Heterodimerized anti-EREG IgG1: Kn115 is H240-Kn072 with S239M
B6: H240-FA021/H240-FB059/L73-k0 (antibody, human IgG1, kappa)
heavy 1: B1 heavy 1 with Q195K, I198T, D269E, D326A, C348Y, D355K, L357K, W365T, V396K, H434R
heavy 2: QDQLVQSGAEVKKPGASVKVSCKASGFNIKDTYIQWVRQAPGQGLEWMGRIDPLRKQTKYREKFEGRVTITADTSTNTAYMELSSLRSEDTAVYYCVRSGREFDYWGQGTLVTVSSASTKGPSVFPLAPSSKSTSGETAALGCLVEDYFPEPVTVSWNSGALTSGVHTFPAVLQSSGLYSLSSVVTVPSSSLGTQTYICNVNHKPSNTKVDKKVEPKSCDKTHTCPPCPAPELLGGPSVFLFPPKPKDTLMISRTPEVTCVVVDVSHEEPEVQFNWYVDGVEVHNAETKPREEQYNSTYRVVSVLTVLHQDWLNGKEYKCKVSNDALPMPIEETISKAKGQPREPQVYTLPPSREEMTKNQVSLTCLVKGFYPSDIAVEWESNGQPENNYKTTPPVLDSDGSFFLYSKLTVDKSRWQQGNVFSCSVMHEALHNHYTQESLSLSP
light: B1 light
notes: Heterodimerized anti-epiregulin IgG1 antibody
B7: H240-FA020/H240-FB084/L73-k0 (antibody, human IgG1, kappa)
heavy 1: B1 heavy 1 with Q195K, I198T, D269E, D326A, C348Y, D355K, L357K, W365T, H434R
heavy 2: B6 heavy 2 with G136E, E137S, S191N, L192F, I198T, N202D, K213T, N383E
light: B1 light
notes: as for B6
B8: H240-FA020/H240-FB059/L73-k0 (antibody, human IgG1, kappa)
heavy 1: B1 heavy 1 with Q195K, I198T, D269E, D326A, C348Y, D355K, L357K, W365T, H434R
heavy 2: B6 heavy 2
light: B1 light
notes: as for B6
B9: H240-FA020/H240-FB082/L73-k0 (antibody, human IgG1, kappa)
heavy 1: B1 heavy 1 with Q195K, I198T, D269E, D326A, C348Y, D355K, L357K, W365T, H434R
heavy 2: B6 heavy 2 with N383E
light: B1 light
notes: as for B6
B10: H240-FA020/H240-FB083/L73-k0 (antibody, human IgG1, kappa)
heavy 1: B1 heavy 1 with Q195K, I198T, D269E, D326A, C348Y, D355K, L357K, W365T, H434R
heavy 2: B6 heavy 2 with G136E, E137S, S191N, L192F, I198T, N202D, K213T
light: B1 light
notes: as for B6

target: T1, FcgRIIa R; test: SPR (Biacore), antibody captured on chip, FcgR extracellular domain as analyte
Description: (§1) Analysis of interaction between obj ective antibody and the FcγR was carried out using Biacore T100 (GE Healthcare), Biacore T200, Biacore A100, and Biacore 4000. HBS-EP+ (GE Healthcare) was used as the running buffer, and the measurement temperature was set to 25° C. Chips produced by immobilizing the antigen peptide by the amine coupling method to a Series S sensor Chip CM5 (GE Healthcare), chips produced by allowing preliminarily biotinylated antigen peptides to interact with and immobilize onto a Series S Sensor Chip SA (certified) (GE Healthcare), chips produced by immobilizing Protein L (ACTIGEN, BioVision) to Series S Sencor Chip CM5 (GE Healthcare), or chips produced by immobilizing Protein A/G (Thermo Scientific) to Series S Sencor Chip CM5 (GE Healthcare) were used. Antibodies of interest were captured onto these chips, and allowed to interact to each FcγR diluted with running buffer. To regenerate and repeatedly use the chip, the antibodies captured onto the chip were washed off by reacting 10 mM glycine-HCl, pH 1.5.

Kd	Binder
950 nM	B1
450 nM	B2

target: T7, FcgRIIIa F (human, UniProt P08637 17-208); test: as above
T7 construct: extracellular domain; also called FcγRIIIa F; not shown: His tag attached to the C terminus
Description: as §1

T7 sequence (P08637 17-208): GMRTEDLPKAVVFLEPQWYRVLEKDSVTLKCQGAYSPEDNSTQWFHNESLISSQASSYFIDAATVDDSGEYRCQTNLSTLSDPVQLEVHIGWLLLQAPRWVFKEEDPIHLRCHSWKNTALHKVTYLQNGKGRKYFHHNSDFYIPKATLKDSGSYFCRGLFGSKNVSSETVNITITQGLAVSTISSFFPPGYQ

Kd	Binder
960 nM	B1
120 nM	B2

target: T8, FcgRIIIa V (human, UniProt P08637 17-208); test: as above
T8 construct: extracellular domain; also called FcγRIIIa V; not shown: His tag attached to the C terminus
Description: as §1

T8 sequence (P08637 17-208 F176V limits assumed): as the sequence (P08637 17-208) above, with F160V counted along it

Kd	Binder
340 nM	B1
14 nM	B2

target: T2, FcgRIIa H; test: as above
Description: as §1

Kd	Binder
2100 nM	B1
160 nM	B2

target: T1, FcgRIIa R; test: as above; remark: another data set of the same source
Description: (§2) H240-Kn113 (SEQ ID NO: 92) resulting from introduction of Y234E and Y235N into H240-Kn072, H240-Kn115 (SEQ ID NO: 93) resulting from introduction of S239M into H240-Kn072, and H240-Kn125 (SEQ ID NO: 94) resulting from introduction of Y235Q and S239M into H240-Kn072 were prepared according to the method described in Reference Example 1.
as §1

Kd	Binder
380 nM	B3
600 nM	B4
130 nM	B5

target: T7, FcgRIIIa F; test: as above; remark: another data set of the same source
Description: as §2, §1

Kd	Binder
1.2 nM	B3
1.7 nM	B4
1.4 nM	B5

target: T8, FcgRIIIa V; test: as above; remark: another data set of the same source
Description: as §2, §1

Kd	Binder
0.37 nM	B3
0.62 nM	B4
0.43 nM	B5

target: T3, FcgRIIb; test: as above
Description: as §2, §1

Kd	Binder
4200 nM	B3
5000 nM	B4
1300 nM	B5

target: T9, FcgRIa (human, UniProt P12314 16-292); test: as above
T9 construct: extracellular domain; Expressed in FreeStyle293 cells and purified; used as analyte in Biacore; also called FcγRIa; FcγRI; not shown: His tag attached to the C terminus
Description: as §2, §1

T9 sequence (P12314 16-292): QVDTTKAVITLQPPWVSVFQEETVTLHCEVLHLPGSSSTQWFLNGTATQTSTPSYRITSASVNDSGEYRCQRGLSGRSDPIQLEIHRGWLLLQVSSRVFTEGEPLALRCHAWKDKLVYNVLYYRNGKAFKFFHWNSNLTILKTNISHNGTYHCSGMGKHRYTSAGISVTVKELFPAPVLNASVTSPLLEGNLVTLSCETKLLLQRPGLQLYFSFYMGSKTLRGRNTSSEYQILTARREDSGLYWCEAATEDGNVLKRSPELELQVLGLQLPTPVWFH

Kd	Binder
0.24 nM	B3
0.21 nM	B4
0.27 nM	B5

target: T2, FcgRIIa H; test: as above; remark: another data set of the same source
Description: as §2, §1

Kd	Binder
190 nM	B3
350 nM	B4
62 nM	B5

target: T4, FcgRIIa H type extracellular domain, …; test: SPR (Biacore), antibody captured on chip, FcgR extracellular domain as analyte, 25 C, 1:1 Langmuir fit; experiment #3
Description: (§3) Antibodies of interest were analyzed for the interaction to FcgR according to the method described in Reference Example 8.
as §1

Kd	Binder
92 nM	B6
57 nM	B7
77 nM	B8
69 nM	B9
65 nM	B10

target: T10, FcgRIIIa F type extracellular domain, C-terminal His tag (human, UniProt P08637 17-208); test: as above
T10 construct: extracellular domain; also called FcγRIIIa F; 3aF; not shown: His tag attached to the C terminus
Description: as §3, §1

T10 sequence (P08637 17-208): as the sequence (P08637 17-208) above

Kd	Binder
4.4 nM	B6
3.5 nM	B7
3.5 nM	B8
3.4 nM	B9
3.4 nM	B10

target: T11, FcgRI extracellular domain, C-terminal His tag (human, UniProt P12314 16-292); test: as above
T11 construct: extracellular domain; also called FcγRIa; FcgRIa; not shown: His tag attached to the C terminus
Description: as §3, §1

T11 sequence (P12314 16-292): as the sequence (P12314 16-292) above

Kd	Binder
0.069 nM	B6
0.068 nM	B7
0.038 nM	B8
0.079 nM	B9
0.12 nM	B10

target: T5, FcgRIIa R type extracellular domain, …; test: as above
Description: as §3, §1

Kd	Binder
280 nM	B6
220 nM	B7
250 nM	B8
270 nM	B9
230 nM	B10

target: T6, FcgRIIb extracellular domain, …; test: as above
Description: as §3, §1

Kd	Binder
1300 nM	B6
1400 nM	B7
1300 nM	B8
1200 nM	B9
1000 nM	B10

target: T12, FcgRIIIa V type extracellular domain, C-terminal His tag (human, UniProt P08637 17-208); test: as above
T12 construct: extracellular domain; also called FcγRIIIa V; 3aV; not shown: His tag attached to the C terminus
Description: as §3, §1

T12 sequence (P08637 17-208 F176V limits assumed): as the sequence (P08637 17-208) above, with F160V counted along it

Kd	Binder
1.7 nM	B6
1 nM	B7
1.3 nM	B8
1.1 nM	B9
1.1 nM	B10
